Values belong to the binder of their own block, whether it stands above or below them.
Biological target: tripartite motif containing 28 (TRIM28) (human (endogenous in HeLa), UniProt Q13263 1-835)
Experiment: cell-based or functional assay

Sequence of tripartite motif containing 28 (TRIM28) (Q13263 whole entry): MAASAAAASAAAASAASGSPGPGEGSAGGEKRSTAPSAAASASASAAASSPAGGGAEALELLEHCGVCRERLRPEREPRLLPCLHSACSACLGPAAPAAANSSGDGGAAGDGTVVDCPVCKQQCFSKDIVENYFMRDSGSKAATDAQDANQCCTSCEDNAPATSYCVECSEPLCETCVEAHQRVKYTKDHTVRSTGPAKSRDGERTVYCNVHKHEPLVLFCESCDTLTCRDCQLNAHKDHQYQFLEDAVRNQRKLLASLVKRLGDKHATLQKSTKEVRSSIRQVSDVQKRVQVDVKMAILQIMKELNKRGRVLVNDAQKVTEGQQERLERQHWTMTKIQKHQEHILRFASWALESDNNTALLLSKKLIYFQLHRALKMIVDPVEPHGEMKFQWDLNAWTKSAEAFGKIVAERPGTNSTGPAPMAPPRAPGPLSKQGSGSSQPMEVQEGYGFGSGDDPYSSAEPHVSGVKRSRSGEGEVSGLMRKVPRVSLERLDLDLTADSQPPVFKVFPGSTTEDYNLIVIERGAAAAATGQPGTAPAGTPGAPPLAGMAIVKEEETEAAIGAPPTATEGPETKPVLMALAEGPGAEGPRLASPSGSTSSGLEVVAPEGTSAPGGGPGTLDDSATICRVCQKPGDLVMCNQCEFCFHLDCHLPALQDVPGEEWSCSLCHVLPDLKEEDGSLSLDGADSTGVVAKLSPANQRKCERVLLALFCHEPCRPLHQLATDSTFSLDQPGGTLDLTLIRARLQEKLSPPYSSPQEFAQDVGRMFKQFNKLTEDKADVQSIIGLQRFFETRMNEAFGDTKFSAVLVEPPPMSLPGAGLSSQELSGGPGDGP

transcriptional repression factor over Gal4-DBD alone, dual luciferase reporter assay in HeLa cells (KRAB domain as Gal4-DBD fusion): ~19 fold
B1: GST-ZNF10-AB fusion protein (domain or fragment)
chain: not shown

transcriptional repression factor over Gal4-DBD alone, dual luciferase reporter assay in HeLa cells (KRAB domain as Gal4-DBD fusion): 1.3 fold
B2: GST-PRDM9-A/24-97 (domain or fragment, human, UniProt Q9NQV7 24-97, looked up)
chain: VKDAFKDISIYFTKEEWAEMGDWEKTRYRNVKRNYNALITIGLRATRPAFMCHRRQAIKLQVDDTEDSDEEWTP

Source: PMC8835667, “The KRAB Domain of ZNF10 Guides the Identification of Specific Amino Acids That Transform the Ancestral KRAB-A-Related Domain Present in Human PRDM9 into a Canonical Modern KRAB-A Domain” (International Journal of Molecular Sciences, 2022)
